Drawing on paper PMC6139572, this text covers isometric force of demembranated rat ventricular trabeculae in relaxing solution (pCa 9) with 40 μmol/liter C1mC2, as percent of that during full Ca2+ activation, Kd and Kd of the additional low-affinity binding interaction for two substances.

Assay [1] deals with isolated native thin filaments (UniProt P68032).
In assay [2] the target is myosin S2Δ, the first 126 amino acids of myosin sub-fragment 2 (rat heart) (rat). In words: MST; as a2 (pH 7, 50 mmol/liter KCl); 25 °C.
Assay [3] has the same target. The experiment in a line: MST; as a2 (pH 7, 50 mmol/liter KCl); 30 °C.
Assay [4] has the same target. In words: MST; as a2 but 180 mmol/liter KCl; pH 7; 30 °C.
The target is the same in assay [5]. The experiment in a line: MST; as a2 (pH 7, 50 mmol/liter KCl); biphasic binding curve of Fig. S3, the temperature of the curve is not given.
In assay [6] the target is isolated native thin filaments (UniProt P68032). The experiment in a line: co-sedimentation; high-velocity co-sedimentation of C1mC2 constructs with isolated native thin filaments; performed as described in ref. 15.
In assay [7] the target is myosin S2Δ, the first 126 amino acids of myosin sub-fragment 2 (rat heart) (rat). In words: MST; Monolith NT.115; 100 nmol/liter Alexa 647–myosin S2Δ fixed, cMyBP-C construct titrated; 20 mmol/liter MOPS pH 7, 1 mmol/liter EDTA, 50 mmol/liter KCl, 1 mmol/liter DTT, 0.05% Tween 20; 21 °C.

“C1mC2, unphosphorylated N-terminal fragment of rat cardiac myosin-binding protein-C containing the Ig-domains C1 and C2 and the intervening m-domain (domain or fragment)” registered an isometric force of demembranated rat ventricular trabeculae in relaxing solution (pCa 9) with 40 μmol/liter C1mC2, as percent of that during full Ca2+ activation in assay [1] of 57%. Moreover, the Kd is 58.5 µM in assay [2]; 21.3 µM in assay [3]; 364 µM in assay [4]; 23 µM in assay [6]; 106 µM in assay [7]. The Kd of the additional low-affinity binding interaction in assay [5] is 400 µmol/L.

In turn, “PKA tris-phosphorylated C1mC2 of rat cardiac myosin-binding protein-C (domain or fragment)” came in with a Kd in assay [6] of 57 µM. In other words, the double-digit micromolar range.
